# Measured values published in the DeepSol protein solubility set.
# Test: soluble on expression in E. coli; label from the status in PepcDB or PDB records
row,Sequence,soluble on expression in E. coli
1,MGSDKIHHHHHHMTISRNYDQEIKDTAGHKYAYNFDFDVMHPFMVRAFTPFFRPGNLLELGSFKGDFTSRLQEHFNDITCVEASEEAISHAQGRLKDGITYIHSRFEDAQLPRRYDNIVLTHVLEHIDDPVALLKRINDDWLAEGGRLFLVCPNANAVSRQIAVKMGIISHNSAVTEAEFAHGHRCTYALDTLERDASRAGLQVTYRSGIFFKALANFQWDQILQTDILSKEYLDGCYQLGQQYPDLCASIFLLCEKGINQ,not soluble
2,MHHHHHHSSGVDLGTENLYFQSMQRGYLLTRNPHLNKDLAFTLEERQQLNIHGLLPPSFNSQEIQVLRVVKNFEHLNSDFDRYLLLMDLQDRNEKLFYRVLTSDIEKFMPIVYTPTVGLACQQYSLVFRKPRGLFITIHDRGHIASVLNAWPEDVIKAIVVTDGERILGLGDLGCNGMGIPVGKLALYTACGGMNPQECLPVILDVGTENEELLKDPLYIGLRQRRVRGSEYDDFLDEFMEAVSSKYGMNCLIQFEDFANVNAFRLLNKYRNQYCTFNDDIQGTASVAVAGLLAALRITKNKLSDQTILFQGAGEAALGIAHLIVMALEKEGLPKEKAIKKIWLVDSKGLIVKGRASLTQEKEKFAHEHEEMKNLEAIVQEIKPTALIGVAAIGGAFSEQILKDMAAFNERPIIFALSNPTSKAECSAEQCYKITKGRAIFASGSPFDPVTLPNGQTLYPGQGNNSYVFPGVALGVVACGLRQITDNIFLTTAEVIAQQVSDKHLEEGRLYPPLNTIRDVSLKIAEKIVKDAYQEKTATVYPEPQNKEAFVRSQMYSTDYDQILPDCYSWPEEVQ,soluble
3,MGSDKIHHHHHHMKHMNNSVDQQIALFGQSGSGKTALLCSFYGAARDSTQSEGQLFELSAKDDRHTKLMKMYLGMKEDSLAPPQNRFESHKTVFSLKQKNIPIKDAAKSDQVNLTWHDYPGEWFEGGAVTDSEKQDKVETFRNLLGSDVALFLVDGQKLHDYANEEERYLSYLFDGFIENLNQIKDAILEGGKQLQQFPRIWVIALSKADLWPDLQVKDFENLLNKKAGNEIIALRSKLLEFIDNDEAFSFGKDFLLLSSAKFTPGHIDISQRKGVDVLLPLACVLPMQRHLWWQELKVLPINLADILLGNEIAQMGFKIVSKVLKNKVSGTNNKAMAALVFAELVRDMVDQPTELLQKAREEAVGRREFLKAITAEFTRKLNQAEADQVLVRDFA,not soluble
4,GVACKPKEKPSSATSLTDDALMDTVQRRTFNYFWDAAEPNSGLARERYHMDGEYPAGGPEIVTSGGSGFGIMAILAGIDRGYVSREEGLRRMEKIVGFLEKADRFKGAYPHWWNGETGHVQPFGQKDNGGDLVETAFLMQGLLAVHQYYAEGSAEEKKLAGRIDKLWREVDWNWYRHGGQNVLYWHWSPEYGWEMNFPVHGYNECLIMYILAAASPTHGVPAAVYHEGWAQNGAIVSPHKVEGIELHLRYQGGEAGPLFWAQYSFLGLDPVGLKDEYCPSYFNEMRNLTLVNREYCIRNPKHYKGYGPDCWGLTASYSVDGYAAHGPLERDDRGVISPTAALSSIVYTPDQSLQVMHHLYEMGDKVFGPYGFYDAFSETADWYPKRYLAIDQGPIAVMIENYRTGLLWKLFMSHPDVQNGLKKLGFNVKK,soluble
5,MSLSMSKRLLLFDFDETYFKHNTNEEDLSHLREMEKLLEKLTNNNEVMTAVLTGSTFQSVMDKMDQVNMTFKPLHIFSDLSSKMFTWNNGEYIESETYKKKVFSEPFLFEDIEDILRHISAQYNVEFIPQRAFEGNETHYNFYFHSTGNHSNDRRILEALVRYANDQNYTARFSRSNPLAGDPENAYDIDFTPSNAGKLYATQFLMKKYNIPVKSILGFGDSGNDEAYLSYLEHAYLMSNSRDEALKQKFRLTKYPYYQGITLHVKEFVEGKYDYEGHHHHHH,soluble
6,QVQLVQSGAEVKKPGSSVKVSCKASGYTFSSNVISWVRQAPGQGLEWMGGVIPIVDIANYAQRFKGRVTITADESTSTTYMELSSLRSEDTAVYYCASTLGLVLDAMDYWGQGTLVTVSSASTKGPSVFPLAPCSRSTSESTAALGCLVKDYFPEPVTVSWNSGALTSGVHTFPAVLQSSGLYSLSSVVTVPSSSLGTKTYTCNVDHKPSNTKVDKRVESKYGPP,soluble
7,MFLLQAPLQRRILEIGKKHGITELHPDVVSYVSHATQQRLQNLVEKISETAQQKNFSYKDDDRYEQASDVRAQLK,soluble
8,MISSSLPSSNAASSSEGRITQAKDVQGFSQRSASGQTPLNQSAALSEQAVPSFRLAAQTFSSEERKEATTATTEENAAVDTTGMNVLLSATTPTETPDLAAQAQTLTQGMLNMAEKSVASFNKVNPLEIKGEAKTTSPAQANALLNTSPQQQDIQTSQTTSANARVNTSAVDFQALLNQPAQGQATTAPLNVQTSAPSAQAVSAATVAHAHTQGSEWAAVKVDTSAGKWGEQMMQVLHDRVTLQAQQSVQEAKIRLDPPDLGKLDLLVRVEGDRLSVQINANTAATREALMQVSERLRTELQEQNFVHVDVNVGADQGQERHQQQMNDEDTTIFAARESSAFQSNTTTNYSEHWLNTQA,not soluble
9,MGSDKIHHHHHHMKVFDVHKFDMKKEQDFLQVQFNLKNRINLSPTIHPDSINTGAGVDLAYWEQDGEPYGVCCIIVIDADTKEVIEKVHSMGRISVPYVSGFLAFRELPLIIEAAKKLETEPDVFLFDGNGYLHYNHMGVATHAAFFLGKPTIGIAKTYLKIKGCDFVTPEIEVGAYTDIIIDGEVYGRALRTRRDVKPIFLSCGNYIDLDSSYQITMSLINQESRLPIPVRLADLETHVLRTFYQKNHV,not soluble
10,MLNRIIEHMNAHHVEDMKGLLKKFGQVHHAENVAFKSVDPQGIVIGYNHNQTLRIEFNHEVKDPKDYKNAIIELCQSVEKTHDLKGVEEEVKAFKESFDSVCLATLHPNGHVVCSYAPLMSDGKQYYIYVSEVAEHFAGLKNNPHNVEVMFLEDESKAKSAILRKRLRYKTNARFIERGAEFDKAFDSFIEKTGGAGGIKTIRAMQDFHLIALDFKEGRFVKGFGQAYDILGDKIAYVGDKGNPHNFAHKK,not soluble
11,MGSDKIHHHHHHMKVVTFGEIMLRLSPPDHKRIFQTDSFDVTYGGAEANVAAFLAQMGLDAYFVTKLPNNPLGDAAAGHLRKFGVKTDYIARGGNRIGIYFLEIGASQRPSKVVYDRAHSAISEAKREDFDWEKILDGARWFHFSGITPPLGKELPLILEDALKVANEKGVTVSCDLNYRARLWTKEEAQKVMIPFMEYVDVLIANEEDIEKVLGISVEGLDLKTGKLNREAYAKIAEEVTRKYNFKTVGITLRESISATVNYWSVMVFENGQPHFSNRYEIHIVDRVGAGDSFAGALIYGSLMGFDSQKKAEFAAAASCLKHTIPGDFVVLSIEEIEKLASGATSGRVER,soluble
12,MRNILATILLVVMLFLVACTGNNNQLVSQSELVPENTPVDGNQIKAPEETLSSDSMYSDYNGKNIKFRFPKTWEMTEYQADYEYFIRFNLPTKNKNRAPNQVTIVISDMAEKSKNFDYQNKNIFEQYIENDNTMDISNITVDGCNGYKAVSIESETLYISFEKGDLRYDLIFMSDEGEFLELLPEVESMISSISTY,not soluble
13,MAHHHHHHMNTHVISVGSRWVHHEVTQALRQRRGVRVEVNEELQHCDFASRASSVLYCDAHSAEMQRDQASLVLRLQEARQRCGTQPVILMVRMDSDNEVSLERLSWLNLECGVAQQCGLILVWSLDDAVQYLASLAAYAVTSLEFTGAARPYVGDAPLPVLVDALTQTPQVVTRNDVVRIANRKTSVADALMSEASEWEGIAGLGRKKAARLQHLFRTPFLSSQQRIDSFVPATGGSSFSTASKAAESHLSQPTGESTARPTEALSVDTAVTTEGRRRMMSALQQRLDKEDEEGGE,not soluble
14,MGSSHHHHHHSSGLVPRGSHMASAASYPPIKNTKVGLALSSHPLASEIGQKVLEEGGNAIDAAVAIGFALAVVHPAAGNIGGGGFAVIHLANGENVALDFREKAPLKATKNMFLDKQGNVVPKLSEDGYLAAGVPGTVAGMEAMLKKYGTKKLSQLIDPAIKLAENGYAISQRQAETLKEARERFLKYSSSKKYFFKKGHLDYQEGDLFVQKDLAKTLNQIKTLGAKGFYQGQVAELIEKDMKKNGGIITKEDLASYNVKWRKPVVGSYRGYKIISMSPPSSGGTHLIQILNVMENADLSALGYGASKNIHIAAEAMRQAYADRSVYMGDADFVSVPVDKLINKAYAKKIFDTIQPDTVTPSSQIKPGMGQLHEGSN,soluble
15,MAHHHHHHMHAVPKDDAEAPLSNTESRGRVALIDTSGYASDMNISAFVPQHAMKPYRVLAAMEIVRSLKIDAHCRTVVPPLVKVEELMAYHTDTYLANLGLHSCRSWLWNAETSKVFFSGDCPPVEGLMEHSIATASGTLMGAVLLNSGQVDVAVHWGGGMHHSKCGECSGFCYVNDIVLGILELLKCHDRVLYVDIDMHHGDGVDEAFCTSDRVFTLSLHKFGESFFPGTGHPRDVGYGRGRYYSMNLAVWDGITDFYYLGIFEHALHSIVRRYSPDAIVLQCGADSLAGDRLGLLNLSSFGHGQCVQAVRDLGIPMLALGGGGYTIRNVAKLWAYETSILTGHPLPPNTVLPVAEMPLSGWLFQDSPLLIVAQDRSNHVLPGLHCQRAYQMMTEQIDRHVPHIQPHPRLQKAFTAAEAADKQVEDGTTAVEDFK,not soluble
16,GMDEKPAITKIISGGQTGADRAALDFAIKHHIPYGGWVPKGRLAEGGRVPETYQLQEMPTSDYSKRTEKNVLDSDGTLIISHGILKGGSALTEFFAEQYKKPCLHIDLDRISIEDAATLINSWTVSHHIQVLNIAGPRAGKDPEIYQATMDLLEVFLA,soluble
17,MHVSPFDWRYGSEEIRRLFTNEAIINAYLEVERALVCALEELGVAERGCCEKVNKASVSADEVYRLERETGHDILSLVLLLEQKSGCRYVHYGATSNDIIDTAWALLIRRALAAVKEKARAVGDQLASMARKYKTLEMVGRTHGQWAEPITLGFKFANYYYELYIACRQLALAEEFIRAKIGGAVGTMASWGELGLEVRRRVAERLGLPHHVITTQVAPRESFAVLASALALMAAVFERLAVEIRELSRPEIGEVVEGGGGSSAMPHKANPTASERIVSLARYVRALTHVAFENVALWHERDLTNSANERVWIPEALLALDEILTSALRVLKNVYIDEERITENLQKALPYILTEFHMNRMIKEGASRAEAYKKAKEVKALTFEYQKWPVERLIEDALSLKLC,soluble
18,MSGAYDESAMSDETTDSFWEVGNYKRTVKRIEDGHRLCNDMMSCIQERAKIEKAYSQQLTDWSKRWRQLVERGPQYGTLERAWLAVMTEAEKVSELHQEVKNNLLNEDLEKVKNWQKDAYHKQMMGGFKETKEADEGFRKAQKPWAKKLKELETAKKTYHMACKEEKIASAREANSKGEASVTTDQQKKLQEKVDKCKNDVQKAKEKYEKSLDELNKCTPQYMENMEVVFDQCQQFEEKRLNFLREVLLDTKRHLNLTESQSYATVYRELERTIVSASAQEDLKWFSSVHGPGMHMNWPQFEEFNPDLSHAISKKEKVKRNHDGVTLTQVTHGAEHGTPQTGDRGSVSSYEKNQQYSAEWSDDEQPPTAAQSASETNGGNPFEEDSKGVRVRALYDYEGQEQDELTFKAGDELTKLEDEDEQGWCKGRLDSGQLGLYPANYVEPV,not soluble
19,MHLLPELASHHAVSIPELLVSRDERQARQHAWLKHHPVPLVSFTVVAPGPIKDSEVTRRIFNHRVTALRALATKQGWQIQEQAALVSASGPEGMLSIAAPARDLKLATIELEHSHPLGRLWDIDVLTPEGEILSRRDYSLRLAAACCASKAQPSARVEKPIN,not soluble
20,MGSDKIHHHHHHVSKPLTGIHILVTRPSHQAGGLAGKIRAAGGEPCLFPVLEIQDISDPRPLLELIERLDEFYLAIFVSPNAVNKAMSVICAKRALPSDLKIATVGQGTARTLRRFGVSGVIVPAVRFDSEALLDMAELDRINVAGKRIIIFRGDNGRELLGETLRKRGASVEYAECYRRIRPEAEIGPLLAAWTRGEMNGVTVTSSEGLRNLWEMVGDSGRTWLENTPLFVSHERIAGVARKLGFNRVIVTAAGDDGLVAGLQDYFSGHMG,not soluble
